Laboratory results as given in the supplement of paper PMC9112550, “Optimization of the antimicrobial peptide Bac7 by deep mutational scanning” (BMC Biology, 2022).

These sequences were tested on Escherichia coli TOP10 (assay: shrunken log2 fold change of peptide-encoding DNA abundance (4.5 h post-induction vs induction); higher = less antimicrobial activity (less host growth inhibition)). Conditions: time post-induction: 4.5 h; library: site-saturation at positions 5, 18, 19, 20.
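Note: peptides expressed intracellularly from a pBAD plasmid library in pooled LB shake-flask culture, induced with 0.3% L-arabinose, DNA abundance read by NGS, three biological replicates, DESeq2 with apeglm shrinkage.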

Row | Sequence | shrunken log2 fold change
1 | RRIRVRPPRLPRPRPRPYISPRP | -0.0821
2 | RRIRNRPPRLPRPRPRPENTPRP | -0.803
3 | RRIRMRPPRLPRPRPRPDDEPRP | 0.123
4 | RRIRWRPPRLPRPRPRPGADPRP | 0.839
5 | RRIRLRPPRLPRPRPRPLQKPRP | 0.141
6 | RRIRNRPPRLPRPRPRPCTSPRP | -0.0712
7 | RRIRFRPPRLPRPRPRPSLTPRP | -0.413
8 | RRIRERPPRLPRPRPRPVLVPRP | -0.0151
9 | RRIRWRPPRLPRPRPRPKIIPRP | -0.0886
10 | RRIRNRPPRLPRPRPRPWRMPRP | 0.0039
11 | RRIRCRPPRLPRPRPRPYDSPRP | 0.00489
12 | RRIRERPPRLPRPRPRPCADPRP | 0.0245
13 | RRIRCRPPRLPRPRPRPADMPRP | -0.115
14 | RRIRSRPPRLPRPRPRPYIQPRP | -1.18
15 | RRIRHRPPRLPRPRPRPLAFPRP | -0.2
16 | RRIRARPPRLPRPRPRPTVDPRP | 0.732
17 | RRIRARPPRLPRPRPRPMYAPRP | 0.207
18 | RRIRWRPPRLPRPRPRPHCPPRP | -0.0401
19 | RRIRKRPPRLPRPRPRPRVFPRP | 0.701
20 | RRIRPRPPRLPRPRPRPMLYPRP | -0.0392
21 | RRIRVRPPRLPRPRPRPFTPPRP | -0.412
22 | RRIRTRPPRLPRPRPRPYNVPRP | -0.297
23 | RRIRCRPPRLPRPRPRPGSEPRP | 0.286
24 | RRIRLRPPRLPRPRPRPYVVPRP | -0.481
25 | RRIRMRPPRLPRPRPRPFVIPRP | -0.197

Row | Sequence | shrunken log2 fold change
26 | RRIRGRPPRLPRPRPRPHDEPRP | 0.136
27 | RRIRYRPPRLPRPRPRPNDEPRP | -0.034
28 | RRIRFRPPRLPRPRPRPCFAPRP | 0.153
29 | RRIRTRPPRLPRPRPRPPAQPRP | 0.608
30 | RRIRKRPPRLPRPRPRPCYNPRP | -0.428
31 | RRIRARPPRLPRPRPRPYYAPRP | -0.501
32 | RRIRFRPPRLPRPRPRPGDYPRP | -0.406
33 | RRIRCRPPRLPRPRPRPQVDPRP | 0.0243
34 | RRIRNRPPRLPRPRPRPDLFPRP | -0.00884
35 | RRIRTRPPRLPRPRPRPMQNPRP | -0.0815
36 | RRIRKRPPRLPRPRPRPSSKPRP | -0.181
37 | RRIRTRPPRLPRPRPRPARAPRP | 0.786
38 | RRIRFRPPRLPRPRPRPHRHPRP | -0.333
39 | RRIRARPPRLPRPRPRPPNIPRP | 0.0251
40 | RRIRHRPPRLPRPRPRPGIPPRP | 0.0292
41 | RRIRLRPPRLPRPRPRPKYDPRP | -0.0843
42 | RRIRWRPPRLPRPRPRPPMKPRP | 0.234
43 | RRIRIRPPRLPRPRPRPLTFPRP | -0.173
44 | RRIRARPPRLPRPRPRPQCGPRP | 0.436
45 | RRIRYRPPRLPRPRPRPILMPRP | -0.0114
46 | RRIRWRPPRLPRPRPRPTRCPRP | 0.0338
47 | RRIRPRPPRLPRPRPRPYCLPRP | -0.115
48 | RRIRCRPPRLPRPRPRPFSEPRP | -0.929
49 | RRIRERPPRLPRPRPRPMSCPRP | -0.206
50 | RRIRGRPPRLPRPRPRPLYGPRP | -0.105

Row | Sequence | shrunken log2 fold change
51 | RRIRDRPPRLPRPRPRPEHYPRP | -0.0548
52 | RRIRIRPPRLPRPRPRPFSKPRP | -0.05
53 | RRIRTRPPRLPRPRPRPYGTPRP | -0.347
54 | RRIRQRPPRLPRPRPRPVNMPRP | 0.0206
55 | RRIRKRPPRLPRPRPRPWIAPRP | 0.285
56 | RRIRARPPRLPRPRPRPRIEPRP | 0.309
57 | RRIRNRPPRLPRPRPRPQREPRP | -0.00141
58 | RRIRVRPPRLPRPRPRPHENPRP | -0.38
59 | RRIRLRPPRLPRPRPRPQYDPRP | -0.155
60 | RRIRARPPRLPRPRPRPMIPPRP | 0.0233
61 | RRIRARPPRLPRPRPRPSYEPRP | -0.069
62 | RRIRMRPPRLPRPRPRPWRFPRP | 0.0528
63 | RRIRWRPPRLPRPRPRPHCHPRP | -0.254
64 | RRIRTRPPRLPRPRPRPVRQPRP | 0.264
65 | RRIRKRPPRLPRPRPRPATEPRP | 0.486
66 | RRIRGRPPRLPRPRPRPWQRPRP | 0.0817
67 | RRIRHRPPRLPRPRPRPTANPRP | 0.0557
68 | RRIRVRPPRLPRPRPRPYKSPRP | -0.492
69 | RRIRRRPPRLPRPRPRPDYAPRP | 0.559
70 | RRIRLRPPRLPRPRPRPVTVPRP | -0.128
71 | RRIRVRPPRLPRPRPRPPHKPRP | 0.274
72 | RRIRLRPPRLPRPRPRPNVMPRP | -0.0669
73 | RRIRRRPPRLPRPRPRPPIDPRP | 0.144
74 | RRIRWRPPRLPRPRPRPEAIPRP | 0.25
75 | RRIRYRPPRLPRPRPRPAVFPRP | -0.0965

Row | Sequence | shrunken log2 fold change
76 | RRIRHRPPRLPRPRPRPFRRPRP | 0.0303
77 | RRIRVRPPRLPRPRPRPHMWPRP | -0.49
78 | RRIRGRPPRLPRPRPRPMFFPRP | 0.336
79 | RRIRPRPPRLPRPRPRPTCQPRP | -0.0775
80 | RRIRIRPPRLPRPRPRPYSPPRP | -0.0324
81 | RRIRRRPPRLPRPRPRPNEVPRP | -0.0332
82 | RRIRDRPPRLPRPRPRPYNTPRP | -0.476
83 | RRIRPRPPRLPRPRPRPRVFPRP | 0.607
84 | RRIRGRPPRLPRPRPRPQNPPRP | 0.0251
85 | RRIRTRPPRLPRPRPRPVFLPRP | -0.56
86 | RRIRARPPRLPRPRPRPGCPPRP | 0.343
87 | RRIRTRPPRLPRPRPRPPYRPRP | -0.187
88 | RRIRIRPPRLPRPRPRPLWFPRP | -0.257
89 | RRIRMRPPRLPRPRPRPFCRPRP | 0.315
90 | RRIRFRPPRLPRPRPRPTFDPRP | -0.138
91 | RRIRNRPPRLPRPRPRPGHHPRP | -0.00875
92 | RRIRSRPPRLPRPRPRPFGKPRP | -0.0207
93 | RRIRCRPPRLPRPRPRPMGWPRP | 0.324
94 | RRIRSRPPRLPRPRPRPMDTPRP | 0.0136
95 | RRIRGRPPRLPRPRPRPNLNPRP | 0.0742
96 | RRIRARPPRLPRPRPRPRIHPRP | -0.145
97 | RRIRHRPPRLPRPRPRPWTPPRP | -0.502
98 | RRIRNRPPRLPRPRPRPTFIPRP | -0.279
99 | RRIRQRPPRLPRPRPRPHTNPRP | -0.814
100 | RRIRRRPPRLPRPRPRPCCGPRP | 0.0161

Row | Sequence | shrunken log2 fold change
101 | RRIRLRPPRLPRPRPRPGKFPRP | 0.117
102 | RRIRMRPPRLPRPRPRPETPPRP | 3.09
103 | RRIRDRPPRLPRPRPRPNDYPRP | -0.197
104 | RRIRPRPPRLPRPRPRPLLVPRP | 0.1
105 | RRIRARPPRLPRPRPRPKGAPRP | 0.514
106 | RRIRHRPPRLPRPRPRPQWQPRP | -0.0687
107 | RRIRGRPPRLPRPRPRPHAEPRP | 2.68
108 | RRIRNRPPRLPRPRPRPCYVPRP | -0.0102
109 | RRIRRRPPRLPRPRPRPMDRPRP | 0.118
110 | RRIRKRPPRLPRPRPRPAAGPRP | 0.896
111 | RRIRYRPPRLPRPRPRPEKTPRP | 0.0635
112 | RRIRTRPPRLPRPRPRPTSRPRP | 0.141
113 | RRIRNRPPRLPRPRPRPSHCPRP | -0.801
114 | RRIRCRPPRLPRPRPRPLYLPRP | -0.493
115 | RRIRHRPPRLPRPRPRPVKPPRP | 0.0296
116 | RRIRLRPPRLPRPRPRPERYPRP | -0.0429
117 | RRIRERPPRLPRPRPRPKTEPRP | -0.0578
118 | RRIRMRPPRLPRPRPRPVCQPRP | 0.13
119 | RRIRGRPPRLPRPRPRPDRMPRP | -0.107
120 | RRIRWRPPRLPRPRPRPLMIPRP | -0.304
121 | RRIRKRPPRLPRPRPRPNMPPRP | 0.145
122 | RRIRYRPPRLPRPRPRPPWQPRP | -0.121
123 | RRIRHRPPRLPRPRPRPKIIPRP | -1.08
124 | RRIRWRPPRLPRPRPRPVICPRP | -0.151
125 | RRIRNRPPRLPRPRPRPFEAPRP | 0.0104

Row | Sequence | shrunken log2 fold change
126 | RRIRDRPPRLPRPRPRPCWPPRP | 0.073
127 | RRIRCRPPRLPRPRPRPRWHPRP | -0.00459
128 | RRIRYRPPRLPRPRPRPDNGPRP | -0.00114
129 | RRIRKRPPRLPRPRPRPRACPRP | 0.474
130 | RRIRPRPPRLPRPRPRPQHGPRP | -0.189
131 | RRIRTRPPRLPRPRPRPPAWPRP | 0.663
132 | RRIRVRPPRLPRPRPRPLNPPRP | -0.113
133 | RRIRSRPPRLPRPRPRPPLCPRP | 0.357
134 | RRIRDRPPRLPRPRPRPHTDPRP | -0.623
135 | RRIRSRPPRLPRPRPRPCHDPRP | -0.105
136 | RRIRDRPPRLPRPRPRPGVEPRP | 0.022
137 | RRIRNRPPRLPRPRPRPEFKPRP | -0.0932
138 | RRIRGRPPRLPRPRPRPSDAPRP | 0.264
139 | RRIRFRPPRLPRPRPRPASYPRP | -0.218
140 | RRIRMRPPRLPRPRPRPNKNPRP | 0.152
141 | RRIRVRPPRLPRPRPRPNREPRP | -0.0873
142 | RRIRIRPPRLPRPRPRPPYRPRP | -0.468
143 | RRIRYRPPRLPRPRPRPINKPRP | -1.43
144 | RRIRDRPPRLPRPRPRPFFWPRP | 0.504
145 | RRIRYRPPRLPRPRPRPKGVPRP | 0.028
146 | RRIRNRPPRLPRPRPRPRSVPRP | 0.258
147 | RRIRNRPPRLPRPRPRPMSSPRP | -0.123
148 | RRIRRRPPRLPRPRPRPWPAPRP | 0.448
149 | RRIRIRPPRLPRPRPRPMSWPRP | -0.402
150 | RRIRARPPRLPRPRPRPNLQPRP | 0.177
